In paper PMC11257509 (bioRxiv, 2024):

Target: the molecule itself
Assay: SEC

B1: 10His-pG-Tn5(E54K, L372P) (enzyme, UniProt Q46731 1-476, looked up)
chain: MITSALHRAADWAKSVFSSAALGDPRRTARLVNVAAQLAKYSGKSITISSEGSKAMQEGAYRFIRNPNVSAEAIRKAGAMQTVKLAQEFPELLAIEDTTSLSYRHQVAEELGKLGSIQDKSRGWWVHSVLLLEATTFRTVGLLHQEWWMRPDDPADADEKESGKWLAAAATSRLRMGSMMSNVIAVCDREADIHAYLQDKLAHNERFVVRSKHPRKDVESGLYLYDHLKNQPELGGYQISIPQKGVVDKRGKRKNRPARKASLSLRSGRITLKQGNITLNAVLAEEINPPKGETPLKWLLLTSEPVESLAQALRVIDIYTHRWRIEEFHKAWKTGAGAERQRMEEPDNLERMVSILSFVAVRLLQLRESFTPPQALRAQGLLKEAEHVESQSAETVLTPDECQLLGYLDKGKRKRKEKAGSLQWAYMAIARLGGFMDSKRTGIASWGALWEGWEALQSKLDGFLAAKDLMAQGIKI
  binding result: binds
